Reference: patent US20260083859A1, “SUSTAINED TRANSGENE EXPRESSION OF MODIFIED ERT2 PEPTIDE-SUICIDE PROTEIN FUSION POLYPEPTIDES” (Senti Biosciences, Inc., priority 2023, published 2026)
Entries after “also recorded” stand apart in the source; their conditions may differ.

Experiments:
iPSC clones = experiment: Apoptotic efficacy in individual construct clones treated with 4-OHT, Endoxifen or combinations; type: cell-based, human; settings: for apoptotic (killing) efficacy: 24 hours
Protocol: Next, individual clones that were determined to be suitable for further assessments were evaluated for 24 hours in the presence of 4-OHT at two different concentrations.
Individual Construct 1-4 clones were also assessed for their responses to another tamoxifen metabolite, Endoxifen. Clones were evaluated for 24 hours in the presence of Endoxifen at three different concentrations.
Tamoxifen is a prodrug that is broken down into its active metabolites in vivo. To model predicted drug concentrations in a patient, the clone Construct 1 c.165 was treated with various combinations of 4-OHT and Endoxifen, wherein 1.25 nM Endoxifen was combined with a concentration of 4-OHT ranging between 0.125 nM to 1 nM (FIG. 12A). […] In the next evaluation, 0.125 nM 4-OHT was combined with either 0.625 or 1.25 nM Endoxifen (FIG. 12B).

[1] = tested on: PSC-derived myeloid progenitor cells; experiment: TamCasp9 Safety Switch activation in PSC-derived myeloid progenitor cells, AOPI staining, Incucyte SX5; type: cell-based, human
Protocol: A hPSC line engineered with TamCasp9 Construct 1 and an unedited parental control hPSC line were differentiated into myeloid progenitor cells through the addition of various growth factors and small molecules. Differentiated cells were plated at 1×10^5 cells/cm^2 in an ultra-low attachment cell culture plate for further myeloid cell maturation. After 7 days in maturation medium, cells were collected and frozen down.
For testing of TamCasp9 Safety Switch activation, myeloid cells were plated at 1.5×10^5 cells/cm^2 in a 96-well tissue culture plate with a 1:750 dilution of ViaStain AOPI Staining Solution (Nexcelom) in X-VIVO 15 Medium with 10 ng/mL GM-CSF. The kill switch was induced with 0, 1, 10 or 100 uM of Endoxifen over 3 days and images were collected every 6 hours on the Incucyte SX5 (Sartorius).
To better model predicted drug concentrations in a patient by testing activation of the kill switch against a range of tamoxifen metabolites, the PSC clone Construct 1 c.165, engineered to incorporate an exemplary modified ERT2 peptide-suicide protein fusion polypeptide construct (Table 3), was differentiated to myeloid progenitor cells as depicted in FIG. 13A. Differentiated cells were plated at 1×10^5 cells/cm^2 in an ultra-low attachment cell culture plate for further myeloid cell maturation. After 7 days in maturation medium, cells were collected and frozen down. For testing of TamCasp9 Safety Switch activation, myeloid cells were plated at 1.0×10^5 cells/cm^2 in a 96-well tissue culture plate with a 1:750 dilution of ViaStain AOPI Staining Solution (Nexcelom) in X-VIVO 15 Medium with 10 ng/mL GM-CSF. The kill switch was induced with varying concentrations of combination 4-OHT and Endoxifen treatment over 4 days and images were collected every 4 hours on the Incucyte SX5, with 12 hour timepoints plotted on a graph (Sartorius) (FIG. 14). Either 2.5 nM or 5 nM of Endoxifen was tested in combination with either 0.5 nM, 1 nM or 10 nM of 4-OHT. 100 nM Endoxifen was added as positive killing control as per FIG. 13E.

human iPSCs [2] = experiment: Junction GAPT2A ddPCR of knock-in iPSC pools for integration at GAPDH locus, with or without 4-OHT; type: cell-based; settings: pooled iPSCs treated with 1 nM 4-OHT
Protocol: Modified ERT2 peptide-suicide protein fusion polypeptide encoding constructs were delivered to human iPSCs via Nucleofection with a GAPDH targeting ribonucleoprotein (RNP) complex comprising of Cpf1 endonuclease and a single guide RNA (sgRNA) targeting the coding sequence of the GAPDH gene. The sgRNA comprised a sequence 5′ […] 3′ (SEQ ID NO: 60). Briefly, iPSCs were cultured in Essential 8 (E8) medium and maintained at 37° C. at 5% CO2 level between passages. Passages were done at 75 to 80% confluency. On the day of Nucleofection, iPSCs were thawed and immediately Nucleofected in Lonza P3 Primary Cell Nucleofection buffer. 7.5 μg of each plasmid construct (BRC00058-61) were Nucleofected into iPSCs using GAPDH Cpf1 RNP with LONZA 4D Nucleofector. The Nucleofected cells were then plated at 50,000 cells/cm^2 per well of a 6-well plate and grown in E8 medium (plus Rock inhibitor Y-27632 from Tocris) for 72 to 96 hours. Knock-in pools were screened for integration 7d post-Nucleofection using ddPCR, as well as conventional PCR.
Whereas the integration dropped from 5.7% to 1% in Construct 1-transfected cell pools and from 4.5% to 0.7% in Construct 2-transfected cell pools when treated with 1 nM 4-OHT (FIG. 4A).

human iPSCs [3] = experiment: Flow cytometric analysis of cleaved Caspase-3 in transfected iPSCs; type: cell-based; settings: 1 nM 4-OHT, two-day treatment
Description: In another set of assessments, Construct 1 or Construct 2 transfected iPSCs were harvested for flow cytometric analysis. The primary antibody used was an anti-human/mouse cleaved Caspase-3. The primary antibody detects human and mouse Caspase 3 cleaved at Asp175.

iPSCs = experiment: Apoptosis induction in transfected iPSCs monitored by microscopy and Incucyte tracking; type: cell-based, human; settings: construct-transfected iPSCs, 1 nM 4-OHT, up to two days

Molecule | fusion polypeptide sequence integration (junction GAPT2A ddPCR) (human iPSCs [2]) [%] | apoptosis (cleaved Caspase-3 flow cytometry) (human iPSCs [3]) | apoptosis / cell killing (iPSCs) | other results
CC/C(=C(\c1ccc(O)cc1)c1ccc(OCCNC)cc1)c1ccccc1 [Endoxifen, endoxifen, reference compound] |  |  |  | lowest effective concentration in 4-OHT-Endoxifen combination (iPSC clones; clone Construct 1 c.165): 1.25 nM; apoptosis in unedited cells ([1]; unedited differentiated myeloid progenitors, combination 4-OHT and Endoxifen treatment): did not induce apoptosis
Construct 1: GAPDH-targeting construct encoding modified ERT2 peptide-suicide protein fusion polypeptide ERT2*mut81-Casp9, SEQ ID NO: 44 (protein) AGDMRAANLWPSPLMIKRSKKNSLALSLTADQMVSALLDAEPPILYSEYDPTRPFSEASMMGLLTNLADRELVHMINWAKRVPGFVDLTLHDQVHLLECAWMEILMIGVVWRSMEHPVKLLFAPNLLLDRDQGKCVEGLVEIFDMLLATSSRFRMMNLQGEEFVCLKSIILLNSGVYTFLPSTLKSLEEKDHIHRVLDKITDTLIHLMAKAGLTLQQQHQRLAQLLLILSHIRHMSNKGMELLYSMKCKNVVPLYDLLLEAADAHRLHAPTSRGGASVEETDQSHLATAGSTSSHSLQKYYITGEAEGFPATGGGGSGGGGSGGGGSVDGFMDVGALESLRGNADLAYILSMEPCGHCLIINNVNFCRESGLRTRTGSNIDCEKLRRRFSSLHFMVEVKGDLTAKKMVLALLELARQDHGALDCCVVVILSHGCQASHLQFPGAVYGTDGCPVSVEKIVNIFNGTSCPSLGGKPKLFFIQACGGEQKDHGFEVASTSPEDESPGSNPEPDATPFQEGLRTFDQLDAISSLPTPSDIFVSYSTFPGFVSWRDPKSGSWYVETLDDIFEQWAHSEDLQSLLLRVANAVSVKGIYKQMPGCFNFLRKKLFFKTS | 1 | able to induce apoptosis in the majority of the cells | cells were completely killed by day 2 | apoptotic (killing) efficacy (iPSC clones; 1 nM 4-OHT): displayed higher efficacy than Construct 2-4 clones; also recorded: highest apoptotic efficacy; apoptotic (killing) efficacy (iPSC clones; 1 nM Endoxifen, compared to hygromycin control): approached the level of apoptosis by hygromycin control at 24 hours; apoptosis (kill switch activity) ([1]; 0, 1, 10 or 100 uM of Endoxifen over 3 days): induced apoptosis following endoxifen treatment
Construct 2: GAPDH-targeting construct encoding fusion polypeptide ERT2*mut88-Casp9, SEQ ID NO: 46 (protein) AGDMRAANLWPSPLMIKRSKKNSLALSLTADQMVSALLDAEPPILYSEYDPTRPFSEASMMGLLTNLADRELVHMINWAKRVPGFVDLTLHDQVHLLECAWLEILMIGVVWRSMEHPVKLLFAPNLLLDRDEGKCVEGMVEIFDMLLATSSRFRMMNLQGEEFVCLKSIILLNSGVYTFLPSTLKSLEEKDHIHRVLDKITDTLIHLMAKAGLTLQQQHQRLAQLLLILSHIRHMSNKGMEFLYSMKCKNVVPLYDLLLEAADAHRLHAPTSRGGASVEETDQSHLATAGSTSSHSLQKYYITGEAEGFPATGGGGSGGGGSGGGGSVDGFMDVGALESLRGNADLAYILSMEPCGHCLIINNVNFCRESGLRTRTGSNIDCEKLRRRFSSLHFMVEVKGDLTAKKMVLALLELARQDHGALDCCVVVILSHGCQASHLQFPGAVYGTDGCPVSVEKIVNIFNGTSCPSLGGKPKLFFIQACGGEQKDHGFEVASTSPEDESPGSNPEPDATPFQEGLRTFDQLDAISSLPTPSDIFVSYSTFPGFVSWRDPKSGSWYVETLDDIFEQWAHSEDLQSLLLRVANAVSVKGIYKQMPGCFNFLRKKLFFKTS | 0.7 | failed to do so | did not induce apoptosis | apoptotic (killing) efficacy (iPSC clones; 5 nM 4-OHT): able to induce apoptosis; apoptotic (killing) efficacy (iPSC clones; 10 nM Endoxifen, compared to hygromycin kill control): able to induce apoptosis
Construct 3: GAPDH-targeting construct encoding fusion polypeptide ERT2*mut63-Casp9, SEQ ID NO: 48 (protein) AGDMRAANLWPSPLMIKRSKKNSLALSLTADQMVSALLDAEPPILYSEYDPTRPFSEASMMGLLTNLADREIVHMINWAKRVPGFVDLTLHDQVHLLECAWLEILMIGVVWRSMEHPVKLLFAPNLLLDRDEGKCVEGLVEIFDMLLATSSRFRMMNLQGEEFVCLKSIILLNSGVYTFLSSTLKSLEEKDHIHRVLDKITDTLIHLMAKAGLTLQQQHQRLAQLLLILSHIRHASNKGMEFLYSMKCKNVVPLYDLLLEAADAHRLHAPTSRGGASVEETDQSHLATAGSTSSHSLQKYYITGEAEGFPATGGGGSGGGGSGGGGSVDGFMDVGALESLRGNADLAYILSMEPCGHCLIINNVNFCRESGLRTRTGSNIDCEKLRRRFSSLHFMVEVKGDLTAKKMVLALLELARQDHGALDCCVVVILSHGCQASHLQFPGAVYGTDGCPVSVEKIVNIFNGTSCPSLGGKPKLFFIQACGGEQKDHGFEVASTSPEDESPGSNPEPDATPFQEGLRTFDQLDAISSLPTPSDIFVSYSTFPGFVSWRDPKSGSWYVETLDDIFEQWAHSEDLQSLLLRVANAVSVKGIYKQMPGCFNFLRKKLFFKTS | 1.4 |  | cells were completely killed by day 2 | 
Construct 4: GAPDH-targeting construct encoding fusion polypeptide ERT2*mut41-Casp9, SEQ ID NO: 50 (protein) AGDMRAANLWPSPLMIKRSKKNSLALSLTADQMVSALLDAEPPILYSEYDPTRPFSEASMMGLLTNLADREIVHMINWAKRVPGFVDLTLHDQVHLLECAWLEILMIGVVWRSMEHPVKLLFAPNLVLDRDEGKCVEGMVEIFDMLLATSSRFRMMNLQGEEFVCLKSIILLNSGVYTFLSSTLKSLEEKDHIHRVLDKITDTLIHLMAKAGLTLQQQHQRLAQLLLILSHIRHMSNKGMELLYSMKCKNVVPLYDLLLEAADAHRLHAPTSRGGASVEETDQSHLATAGSTSSHSLQKYYITGEAEGFPATGGGGSGGGGSGGGGSVDGFMDVGALESLRGNADLAYILSMEPCGHCLIINNVNFCRESGLRTRTGSNIDCEKLRRRFSSLHFMVEVKGDLTAKKMVLALLELARQDHGALDCCVVVILSHGCQASHLQFPGAVYGTDGCPVSVEKIVNIFNGTSCPSLGGKPKLFFIQACGGEQKDHGFEVASTSPEDESPGSNPEPDATPFQEGLRTFDQLDAISSLPTPSDIFVSYSTFPGFVSWRDPKSGSWYVETLDDIFEQWAHSEDLQSLLLRVANAVSVKGIYKQMPGCFNFLRKKLFFKTS | 2.3 |  | cells were completely killed by day 2 | 
